This passage reports fraction unconjugated results from article PMC8926328.

The target in the assay is HBsAg-SpyCatcher VLPs (hepatitis B virus). Nature of the assay: SDS-PAGE of the covalent conjugate.

With “RBD-SpyTag (from UniProt P0DTC2) (domain or fragment)”, the fraction unconjugated was less than 20%.
